Data published in the supplement of paper PMC9170038.

Tested on: MS2 coat protein
Experiment: apparent KD of MS2 coat protein; designed switch direction (-1 OFF switch, 1 ON switch): 1; higher = weaker reporter binding
How it was run: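 The buffer was Tris-HCl pH 7.5 with KCl, MgCl2, BSA, DTT, tRNA and Tween-20. In it, SNAP-549-labelled MS2 coat protein was titrated in doubling steps from 0.7 or 1.5 nM to 3 µM over chip-bound RNA switches transcribed by stalled E. coli RNA polymerase on Illumina chips. Apparent KD is the per-design median over clusters of curve fits to normalised fluorescence.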

[1] = Eterna round: R95, input ligand: FMN 200 uM
[2] = Eterna round: R95, input ligand: microRNA oligo, concentration not stated
[3] = Eterna round: R95, input ligand: none
[4] = input ligand: microRNA oligo, concentration not stated

Sequence	apparent KD of MS2 coat protein [1]	apparent KD of MS2 coat protein [2]	apparent KD of MS2 coat protein [3]	apparent KD of MS2 coat protein (input ligand: FMN 200 uM)	apparent KD of MS2 coat protein [4]	apparent KD of MS2 coat protein (input ligand: none)
AUAAGGCAAGCUUUUUUCUCGUUGUGUAAACAUGAGGAUCACCCAUGUGCUCGCCCUGGAUCUUUGGAUCGCAGAAA [Rarisooron] (puzzle: Sensor for hsa-mir-208a)	104 nM	33.6 nM	119 nM	–	–	–
AGCUUUUAAUUAGGAUAUGGUCACAUGAGGAUCACCCAUGUAACGAUGAUAUAAUGUGGUCAAGACUAGAAGGGAUCGCUAACA [SameState NG2 #69] (Eterna round: R96, puzzle: Same State NG 2)	–	–	–	320 nM	282 nM	284 nM
GGAGCCGGCCUAGGAUAUUUCAUAAAAAGACAUGAGGAUCACCCAUGUAGGCCAGAAGGCCUUGGGAAGAAGGAGGUCGGCUCC [Loop Effect - G29] (Eterna round: R96, puzzle: Same State NG 2)	–	–	–	20.8 nM	22.7 nM	32.9 nM
UGUUGUAUUACAGGAUAUCUAGUAAUUUUAUUUAGAGAAGGGUAUUCACAUGAGGAUCACCCAUGUAUAUACGAGGAAGUUGUG [JMF's solution 35] (Eterna round: R96, puzzle: Same State NG 1)	–	–	–	–	27.8 nM	–
CUGCUCGGGUGAGGAUAUGCCGCCGUUUCGGCUGCAGAAGGUGCUACGUUACAUGAGGAUCACCCAUGUCUCUGUUGUUUCGUG [salish99_SSNG1_r04_966] (Eterna round: R96, puzzle: Same State NG 1)	–	–	–	108 nM	60.7 nM	76 nM
GGUGCCAAAUAAGCCUACAUGAGGAUCACCCAUGUAUGUAGGUAGGAUAUCGUUUGCAAAGCAAACGAGAAGGGCCUAGGCACC [Mat - Same State NG 3 - JL Mod - D59] (Eterna round: R96, puzzle: Same State NG 3)	–	–	–	26.1 nM	39.3 nM	50.7 nM
GCGGAACCUGACAUGAGGAUCACCCAUGUUCCGGAAACGGCACAGGAUAUCUGUCCGAAAAGGUCAGAGAAGGGUGAAAACCGC [Fiskers NG3ss - 96] (Eterna round: R96, puzzle: Same State NG 3)	–	–	–	269 nM	714 nM	719 nM
AUACAUGAGGAUCACCCAUGUAAUUAAUUAACUUGUAAGAUCAAGGAUAUCAGCUCGAAUAGAGCUGAGAAGGUGAUCACAUGU [SSNG3/21-C1] (Eterna round: R96, puzzle: Same State NG 3)	–	–	–	–	105 nM	–
GGUGGGUUGCUACCGGCACAUGAGGAUCACCCAUGUUUUGGGAAGGAUAUGGUACCUAUUUGGUACCAGAAGGUCCCGUUGGUG [salish99_SSNG3_r04_708] (Eterna round: R96, puzzle: Same State NG 3)	–	–	–	–	176 nM	–
UCUCGGCACGCAGGAUAUCCCGCUUCCUGGUGAGGAGAAGGGUGGUCGGGAAAACAUGAGGAUCACCCAUGUAAAAGUAAGAGG [Usdidige] (Eterna round: R96, puzzle: Same State NG 1)	–	–	–	41.6 nM	61.3 nM	183 nM
AGGCUCAGACGAGGAUAUACGUGGUCACAUGAGGAUCACCCAUGUCUCGAGCUUCGGCUCGAGGCGUAGAAGGCGUCUGAGCCA [SSNG2/6-A1] (Eterna round: R96, puzzle: Same State NG 2)	–	–	–	152 nM	201 nM	268 nM
UGGUACAUGGGAGGAUAUGGAGUGAUGACAUGAGGAUCACCCAUGUUAUAUAUGCCGAGAGGCAACUAGAAGGCCCAUGUACCU [JL SSNG1 3.97] (Eterna round: R96, puzzle: Same State NG 2)	–	–	–	19.4 nM	121 nM	137 nM
GGACGUCGAUUUCCUACUUAAACAUGAGGAUCACCCAUGUCACAGGAUAUGAGUCCGAUUAGGACUCAGAAGGGUGCGACGUCC [Fiskers NG3ss - 52] (Eterna round: R96, puzzle: Same State NG 3)	–	–	–	22.7 nM	11.1 nM	18.8 nM
GUGGUCAGACAUGAGGAUCACCCAUGUGGAAUAAAUAAGGAGAAGGAUAUGCAAUAUAGGAUAUAGCAGAAGGUCUGGUUGGUG (Eterna round: R96, puzzle: Same State NG 3)	–	–	–	–	58.5 nM	–
CAUCUAUACGUAGGAUAUGUAGGAUAUGCCUACAUGAGGAUCACCCAUGUUCGCAUGGCAGAAGGACAGAAGGACGAACUACUU [pwkr ssNG2 2FMN + 1F5.6] (Eterna round: R96, puzzle: Same State NG 2)	–	–	–	32.4 nM	174 nM	234 nM
AACCGCGCAGAUGCGCGACAUGAGGAUCACCCAUGUGGCACACAGGAUAUCCUGAACAGCUAUUAGGAGAAGGGUGAAGGCCUC [Oredceti] (Eterna round: R96, puzzle: Same State NG 3)	–	–	–	339 nM	45.1 nM	127 nM

Sequence	apparent KD of MS2 coat protein [1]	apparent KD of MS2 coat protein [2]	apparent KD of MS2 coat protein [3]	apparent KD of MS2 coat protein (input ligand: FMN 200 uM)	apparent KD of MS2 coat protein [4]	apparent KD of MS2 coat protein (input ligand: none)
UAAAGCAAGUCAGGAUAUGGGAAAGGAAGUGUACUAGAAGGGACUUGUAGGAACAUGAGGAUCACCCAUGUACCGCGGACUAAA [PowerStrip SSNG 1.7] (Eterna round: R96, puzzle: Same State NG 1)	–	–	–	31.7 nM	42.6 nM	47.8 nM
GAGUGGCAGUUAGGAUAUAUAGUGAUAAUCACAAUAGAAGGAACAGACAUGAGGAUCACCCAUGUAGGACUAAUCCAGAGAGAG [Parity 37 - Jieux - Same State NG 1] (Eterna round: R96, puzzle: Same State NG 1)	–	–	–	19.2 nM	16.4 nM	23.4 nM
AGCUUACAUGAGGAUCACCCAUGUUUUAGCCAGACAGGAUAUGGGUAUCUAAAACACAACCCAGAAGGGUCAAAAC [Usveriri] (puzzle: Same State 1)	57.5 nM	233 nM	489 nM	–	–	–
CUGAGAUGUCAAGGAUAUGCUACCGUUUCGGUAGCAGAAGGUGAUCACAUGAGGAUCACCCAUGUAUGCAUGCGUGAGCGUGCU [JL SSNG1 3.59] (Eterna round: R96, puzzle: Same State NG 1)	–	–	–	234 nM	36.9 nM	62 nM
AUUUAACAAGCUUUUUGCUCGUCUUAUAAACAUGAGGAUCACCCAUGUAAUAGCGUGAGAGUAAAUAAUUUAAUUAU [JMF 99] (puzzle: Sensor for hsa-mir-208a)	13.7 nM	48.6 nM	10.8 nM	–	–	–
AGCUAUCGAAAACGAUAGCAAGAGCAUGUACAUGAGGAUCACCCAUGUCAUGUACAAGCUUUUUGCUCGUCUUAAAA [Zipper 23 - 2] (puzzle: Sensor for hsa-mir-208a)	330 nM	17 nM	490 nM	–	–	–
GAGUAGUUGAAAGGAUAUUGAUUAUUGUAGGAUCAAGAAGGUUUUAACAUGAGGAUCACCCAUGUAGGACUAUAUAUGUGAAUA [Parity 95 - Jieux - Same State NG 1] (Eterna round: R96, puzzle: Same State NG 1)	–	–	–	12.2 nM	12.3 nM	16 nM
GGUCCAGCCUGAGCUGGACAAAAGCAUGUACAUGAGGAUCACCCAUGUUCAUGUACAAGCUUUUUGCUCGUCUUACA [salish99_208a_r3_084] (puzzle: Sensor for hsa-mir-208a)	485 nM	14.8 nM	443 nM	–	–	–
AGUCCAGCCUGAGCUGGACAAAAGCAUGUACAUGAGGAUCACCCAUGUUCAUGUGCAAGCUUUUUGCUCGUCUUAAA [Zipper 52 - 4] (puzzle: Sensor for hsa-mir-208a)	64.9 nM	11.4 nM	71.2 nM	–	–	–
CUGAGAAGUCAAGGAUAUCACGUCGAUUAGACGUGAGAAGGUGAUCAGUACAUGAGGAUCACCCAUGUGUUACAUGGAACUCAG [Brourd's SSNG1/1-A2 mod 8] (Eterna round: R96, puzzle: Same State NG 1)	–	–	–	1660 nM	367 nM	1110 nM
AAAUAAUAGGCAGGAUAUGGGAAAGGAAGUGUACCAGAAGGGCCGCAACUCAAUACAACAUGAGGAUCACCCAUGUUAGUGUCG [PowerStrip SSNG 1.5] (Eterna round: R96, puzzle: Same State NG 1)	–	–	–	10.2 nM	14.9 nM	15.7 nM
UUGAAGAAUAUAGGAUAUUGAAUACAUAUGUUUAACAUGAGGAUCACCCAUGUGGGUUGCGGUAUCGAGAAGGAUAAAUAAAAG [Mat - Same State NG 2 - JL mod - D14] (Eterna round: R96, puzzle: Same State NG 2)	–	–	–	203 nM	162 nM	181 nM
UUCUCAUUUACAUGAGGAUCACCCAUGUUUUUUUGUAGGAAAUAGGAUAUAGGUCUCUCGUUUUACUAGAAGGAUUUCCUUAUU [JR_SSNG3_Sub090] (Eterna round: R96, puzzle: Same State NG 3)	–	–	–	51.5 nM	38 nM	48.5 nM
AUAAACAGGCUAGGAUAUCCGGAAACUACAGGGCACAACCCUAUAGACAUGAGGAUCACCCAUGUGGAGAAGGAGCCACAUGAA [Ceesis] (Eterna round: R96, puzzle: Same State NG 2)	–	–	–	40.6 nM	156 nM	195 nM
CUCAAAACAAGCUGCAGUGUUCGUCUUUAACAUGAGGAUCACCCAUGUAGUAGCCCGGUGGAAGCGCUCGGGCCACC [Antetera] (puzzle: Sensor for hsa-mir-208a)	44.3 nM	27.8 nM	43.9 nM	–	–	–
